Results: IntAct's records for PubMed 23376921

B1: Transmembrane protein 59 (Homo sapiens), Q9BXS4 (parent)
chain: MAAPKGSLWVRTQLGLPPLLLLTMALAGGSGTASAEAFDSVLGDTASCHRACQLTYPLHTYPKEEELYACQRGCRLFSICQFVDDGIDLNRTKLECESACTEAYSQSDEQYACHLGCQNQLPFAELRQEQLMSLMPKMHLLFPLTLVRSFWSDMMDSAQSFITSSWTFYLQADDGKIVIFQSKPEIQYAPHLEQEPTNLRESSLSKMSYLQMRNSQAHRNFLEDGESDGFLRCLSLNSGWILTTTLVLSVMVLLWICCATVATAVEQYVPSEKLSIYGDLEFMNEQKLNRYPASSLVVVRSKTEDHEEAGPLPTKVNLAHSEI
B2: Transmembrane protein 59 (Homo sapiens), Q9BXS4 (parent)
chain: B1 chain
partner: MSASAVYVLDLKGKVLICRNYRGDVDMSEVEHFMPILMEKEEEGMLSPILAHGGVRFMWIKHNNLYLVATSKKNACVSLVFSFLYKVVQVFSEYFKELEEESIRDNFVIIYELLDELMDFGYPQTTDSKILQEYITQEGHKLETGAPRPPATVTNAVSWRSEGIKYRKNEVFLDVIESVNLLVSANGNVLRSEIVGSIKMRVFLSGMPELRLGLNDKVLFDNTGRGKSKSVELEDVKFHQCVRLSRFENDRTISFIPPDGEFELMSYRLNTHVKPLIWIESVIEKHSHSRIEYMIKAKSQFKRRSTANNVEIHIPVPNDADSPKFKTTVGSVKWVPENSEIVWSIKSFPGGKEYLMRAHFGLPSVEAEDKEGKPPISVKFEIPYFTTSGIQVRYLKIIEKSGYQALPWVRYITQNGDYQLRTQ

Variants of: B1
Conditions: with ATG16L1, Q676U5
Chain of ATG16L1, Q676U5 (Q676U5 whole entry): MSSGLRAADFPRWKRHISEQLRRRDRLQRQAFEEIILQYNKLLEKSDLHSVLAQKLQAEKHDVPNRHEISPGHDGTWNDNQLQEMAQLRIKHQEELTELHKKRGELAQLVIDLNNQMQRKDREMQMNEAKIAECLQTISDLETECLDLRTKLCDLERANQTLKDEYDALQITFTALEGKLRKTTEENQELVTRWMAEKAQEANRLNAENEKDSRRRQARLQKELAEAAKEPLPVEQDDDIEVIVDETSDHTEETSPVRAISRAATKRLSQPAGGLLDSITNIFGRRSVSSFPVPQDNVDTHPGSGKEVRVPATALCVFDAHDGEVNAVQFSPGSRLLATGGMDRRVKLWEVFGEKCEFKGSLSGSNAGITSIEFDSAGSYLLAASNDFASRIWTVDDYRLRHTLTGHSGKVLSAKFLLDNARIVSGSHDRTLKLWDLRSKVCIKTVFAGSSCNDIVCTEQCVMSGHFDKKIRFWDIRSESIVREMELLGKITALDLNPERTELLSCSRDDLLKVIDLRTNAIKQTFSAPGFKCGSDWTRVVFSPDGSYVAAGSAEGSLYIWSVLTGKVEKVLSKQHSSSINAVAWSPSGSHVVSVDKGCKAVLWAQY

Row | Variant | effect of a mutation on the interaction
1 | MAAPKGSLWVRTQLGLPPLLLLTMALAGGSGTASAEAFDSVLGDTASCHRACQLTYPLHTYPKEEELYACQRGCRLFSICQFVDDGIDLNRTKLECESACTEAYSQSDEQYACHLGCQNQLPFAELRQEQLMSLMPKMHLLFPLTLVRSFWSDMMDSAQSFITSSWTFYLQADDGKIVIFQSKPEIQYAPHLEQEPTNLRESSLSKMSYLQMRNSQAHRNFLEDGESDGFLRCLSLNSGWILTTTLVLSVMVLLWICCATVATAVEQYVPSEKLSIAGDAEFMNEQKLNRYPASSLVVVRSKTEDHEEAGPLPTKVNLAHSEI [Y277A;L280A] | disrupting interaction

Variants of: B1
Conditions: with ATG16L1, Q676U5
Remark: another data set of the same source

Row | Variant | effect of a mutation on the interaction
2 | MAAPKGSLWVRTQLGLPPLLLLTMALAGGSGTASAEAFDSVLGDTASCHRACQLTYPLHTYPKEEELYACQRGCRLFSICQFVDDGIDLNRTKLECESACTEAYSQSDEQYACHLGCQNQLPFAELRQEQLMSLMPKMHLLFPLTLVRSFWSDMMDSAQSFITSSWTFYLQADDGKIVIFQSKPEIQYAPHLEQEPTNLRESSLSKMSYLQMRNSQAHRNFLEDGESDGFLRCLSLNSGWILTTTLVLSVMVLLWICCATVATAVEQAVPSAKLSIAGDAEFMNEQKLNRYPASSLVVVRSKTEDHEEAGPLPTKVNLAHSEI [Y268A;E272A;Y277A;L280A] | disrupting interaction

Variants of: B1
Conditions: with ATG16L1, Q676U5
Remark: another data set of the same source

Row | Variant | effect of a mutation on the interaction
3 | MAAPKGSLWVRTQLGLPPLLLLTMALAGGSGTASAEAFDSVLGDTASCHRACQLTYPLHTYPKEEELYACQRGCRLFSICQFVDDGIDLNRTKLECESACTEAYSQSDEQYACHLGCQNQLPFAELRQEQLMSLMPKMHLLFPLTLVRSFWSDMMDSAQSFITSSWTFYLQADDGKIVIFQSKPEIQYAPHLEQEPTNLRESSLSKMSYLQMRNSQAHRNFLEDGESDGFLRCLSLNSGWILTTTLVLSVMVLLWICCATVATAVEQAVPSAKLSIAGDAEFMNEQKLNRYPASSLVVVRSKTEDHEEAGPLPTKVNLAHSEI [Y268A;E272A;Y277A;L280A] | disrupting interaction

Variants of: B1
Conditions: with ATG16L1, Q676U5
Remark: another data set of the same source

Row | Variant | effect of a mutation on the interaction
4 | MAAPKGSLWVRTQLGLPPLLLLTMALAGGSGTASAEAFDSVLGDTASCHRACQLTYPLHTYPKEEELYACQRGCRLFSICQFVDDGIDLNRTKLECESACTEAYSQSDEQYACHLGCQNQLPFAELRQEQLMSLMPKMHLLFPLTLVRSFWSDMMDSAQSFITSSWTFYLQADDGKIVIFQSKPEIQYAPHLEQEPTNLRESSLSKMSYLQMRNSQAHRNFLEDGESDGFLRCLSLNSGWILTTTLVLSVMVLLWICCATVATAVEQAVPSAKLSIAGDAEFMNEQKLNRYPASSLVVVRSKTEDHEEAGPLPTKVNLAHSEI [Y268A;E272A;Y277A;L280A] | disrupting interaction

Variants of: B1
Conditions: with ATG16L1, Q676U5
Remark: another data set of the same source

Row | Variant | effect of a mutation on the interaction
5 | MAAPKGSLWVRTQLGLPPLLLLTMALAGGSGTASAEAFDSVLGDTASCHRACQLTYPLHTYPKEEELYACQRGCRLFSICQFVDDGIDLNRTKLECESACTEAYSQSDEQYACHLGCQNQLPFAELRQEQLMSLMPKMHLLFPLTLVRSFWSDMMDSAQSFITSSWTFYLQADDGKIVIFQSKPEIQYAPHLEQEPTNLRESSLSKMSYLQMRNSQAHRNFLEDGESDGFLRCLSLNSGWILTTTLVLSVMVLLWICCATVATAVEQAVPSAKLSIAGDAEFMNEQKLNRYPASSLVVVRSKTEDHEEAGPLPTKVNLAHSEI [Y268A;E272A;Y277A;L280A] | disrupting interaction

Variants of: B1
Conditions: with ATG16L1, Q676U5
Remark: another data set of the same source

Row | Variant | effect of a mutation on the interaction
6 | MAAPKGSLWVRTQLGLPPLLLLTMALAGGSGTASAEAFDSVLGDTASCHRACQLTYPLHTYPKEEELYACQRGCRLFSICQFVDDGIDLNRTKLECESACTEAYSQSDEQYACHLGCQNQLPFAELRQEQLMSLMPKMHLLFPLTLVRSFWSDMMDSAQSFITSSWTFYLQADDGKIVIFQSKPEIQYAPHLEQEPTNLRESSLSKMSYLQMRNSQAHRNFLEDGESDGFLRCLSLNSGWILTTTLVLSVMVLLWICCATVATAVEQAVPSAKLSIAGDAEFMNEQKLNRYPASSLVVVRSKTEDHEEAGPLPTKVNLAHSEI [Y268A;E272A;Y277A;L280A] | disrupting interaction

Variants of: B1
Conditions: with ap2m1_human AP2M1, Q96CW1
Chain of ap2m1_human AP2M1, Q96CW1 (Q96CW1 whole entry): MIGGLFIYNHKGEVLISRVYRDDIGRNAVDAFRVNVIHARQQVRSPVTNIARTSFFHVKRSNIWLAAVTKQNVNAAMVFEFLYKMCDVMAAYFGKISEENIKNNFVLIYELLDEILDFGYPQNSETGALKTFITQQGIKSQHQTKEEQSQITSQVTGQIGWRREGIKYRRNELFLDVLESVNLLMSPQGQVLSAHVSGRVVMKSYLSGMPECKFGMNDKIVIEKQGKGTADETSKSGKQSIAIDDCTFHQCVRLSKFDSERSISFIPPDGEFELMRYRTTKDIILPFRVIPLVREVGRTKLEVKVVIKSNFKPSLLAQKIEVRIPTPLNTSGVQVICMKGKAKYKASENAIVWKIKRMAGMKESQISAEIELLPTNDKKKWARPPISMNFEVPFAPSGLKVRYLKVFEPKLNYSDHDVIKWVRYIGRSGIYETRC

Row | Variant | effect of a mutation on the interaction
7 | MAAPKGSLWVRTQLGLPPLLLLTMALAGGSGTASAEAFDSVLGDTASCHRACQLTYPLHTYPKEEELYACQRGCRLFSICQFVDDGIDLNRTKLECESACTEAYSQSDEQYACHLGCQNQLPFAELRQEQLMSLMPKMHLLFPLTLVRSFWSDMMDSAQSFITSSWTFYLQADDGKIVIFQSKPEIQYAPHLEQEPTNLRESSLSKMSYLQMRNSQAHRNFLEDGESDGFLRCLSLNSGWILTTTLVLSVMVLLWICCATVATAVEQAVPSAKLSIAGDAEFMNEQKLNRYPASSLVVVRSKTEDHEEAGPLPTKVNLAHSEI [Y268A;E272A;Y277A;L280A] | disrupting interaction

Variants of: B1
Conditions: with mlp3a_human MAP1LC3A

Row | Variant | effect of a mutation on the interaction
8 | MAAPKGSLWVRTQLGLPPLLLLTMALAGGSGTASAEAFDSVLGDTASCHRACQLTYPLHTYPKEEELYACQRGCRLFSICQFVDDGIDLNRTKLECESACTEAYSQSDEQYACHLGCQNQLPFAELRQEQLMSLMPKMHLLFPLTLVRSFWSDMMDSAQSFITSSWTFYLQADDGKIVIFQSKPEIQYAPHLEQEPTNLRESSLSKMSYLQMRNSQAHRNFLEDGESDGFLRCLSLNSGWILTTTLVLSVMVLLWICCATVATAVEQAVPSAKLSIAGDAEFMNEQKLNRYPASSLVVVRSKTEDHEEAGPLPTKVNLAHSEI [Y268A;E272A;Y277A;L280A] | disrupting interaction

Variants of: B2
Conditions: with ap1m1_human AP1M1, Q9BXS5

Row | Variant | effect of a mutation on the interaction
9 | MAAPKGSLWVRTQLGLPPLLLLTMALAGGSGTASAEAFDSVLGDTASCHRACQLTYPLHTYPKEEELYACQRGCRLFSICQFVDDGIDLNRTKLECESACTEAYSQSDEQYACHLGCQNQLPFAELRQEQLMSLMPKMHLLFPLTLVRSFWSDMMDSAQSFITSSWTFYLQADDGKIVIFQSKPEIQYAPHLEQEPTNLRESSLSKMSYLQMRNSQAHRNFLEDGESDGFLRCLSLNSGWILTTTLVLSVMVLLWICCATVATAVEQAVPSAKLSIAGDAEFMNEQKLNRYPASSLVVVRSKTEDHEEAGPLPTKVNLAHSEI [Y268A;E272A;Y277A;L280A] | disrupting interaction
